T1: Abp1 SH3 (ABP1_YEAST), P15891
T1 chain: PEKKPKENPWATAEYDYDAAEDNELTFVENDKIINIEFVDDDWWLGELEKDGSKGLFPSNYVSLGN


Molecular target: T1, Abp1 SH3 (ABP1_YEAST), P15891
Experiment: SPOT array

Row | Binder | normalised SPOT signal, Boehringer light units (BLU); mean over the file's lines of this peptide
1 | LKSFFTNPNKKRP [YOR098C 23-35] | 323
2 | LKSLNLPQLPPPKP [YDR266C 568-581] | 40.9
3 | LKYFGKALENPTRP [YCR012W 192-205] | 117
4 | LLEAIDAIEQPSRP [YBR118W 226-239] | 41.3
5 | LLHQYDDPLMFKP [YDL180W 44-56] | 19.6
6 | LLKKGVNPKAKRP [YNL061W 602-614] | 54.3
7 | LLPPPPPPPYQRP [YPL063W 179-191] | 111
8 | LLQEDSRIMPPLKP [YBR133C 322-335] | 185
9 | LLQQQRVDVVPPKP [YML113W 123-136] | 140
10 | LLRENTTILDPSKP [YKR056W 387-400] | 177
11 | LLRLRPRPLLLRP [YKR047W 79-91] | 249
12 | LLRRNPSPSIVKP [YFL021W 256-268] | 1070
13 | LLSKVHDPNIPLRP [YGR184C 639-652] | 135
14 | LMMPVMVPTVYKP [YPR013C 154-166] | 188
15 | LNALNVNSHAPTKP [YOR059C 245-258] | 171
16 | LNSSVVVPKTTKP [YIL168W 85-97] | 114
17 | LNDPTATPFTSRP [YNL091W 1210-1222] | 130
18 | LNDSMFFPYPFKP [YGL131C 434-446] | 50.6
19 | LNLIGRRSASPYRP [YDL033C 6-19] | 144
20 | LNLQHQLEYWPHRP [YLR436C 877-890] | 97.9

Row | Binder | normalised SPOT signal, Boehringer light units (BLU); mean over the file's lines of this peptide
21 | LNNLLAPPLSPTKP [YDR425W 249-262] | 79.6
22 | LNVSAPVVADPTRP [YNR014W 72-85] | 156
23 | LPQDYYDPSFMRP [YIL108W 388-400] | 153
24 | LQEDLHDPLEFKP [YKL105C 259-271] | 74.4
25 | LQELKFSPVINKP [YLR022C 137-149] | 66
26 | LQHAAEPPVEKRP [YDR174W 207-219] | 54.2
27 | LQKKNDRPSPLKP [YKL101W 858-870] | 450
28 | LQPQNQAPLEPLKP [YIR006C 225-238] | 25.4
29 | LQQEQNTPPLPPKP [YCL008C 171-184] | 82.6
30 | LQSQFFDSMSPVRP [YGL003C 218-231] | 67.6
31 | LQVHRDQPREKRP [YDR176W 173-185] | 140
32 | LRLKKSPLKVPSRP [YOR081C 655-668] | 452
33 | LRNTTTYKSRPDRP [YBR289W 754-767] | 273
34 | LRQEYSFSLDPDRP [YPR107C 19-32] | 144
35 | LSHRLWLYAAPKRP [YMR156C 126-139] | 171
36 | LSKKENKVGSPEKP [YOR244W 327-340] | 32.6
37 | LSKNWELPQRLKP [YOL028C 50-62] | 1040
38 | LSKVRGRPMYPRP [YBR083W 422-434] | 382
39 | LSLNKAFEKVPRRP [YNL068C 392-405] | 854
40 | LSQLKRFERSPGRP [YFL007W 20-33] | 524

Row | Binder | normalised SPOT signal, Boehringer light units (BLU); mean over the file's lines of this peptide
41 | LSRKESKFGTPEKP [YBL052C 441-454] | 75.9
42 | LSTVNPAPANRKP [YJL005W 199-211] | 171
43 | LSYYLAISTNPGRP [YOL003C 52-65] | 40.5
44 | LTSLPVPPPPVRP [YDL140C 236-248] | 68.5
45 | LTEITKLPNITRP [YLR152C 193-205] | 150
46 | LTFANVSFSYPSRP [YKL209C 357-370] | 100
47 | LTLWSQPPDVLKP [YLL031C 923-935] | 104
48 | LTNLIRNPRFSKP [YHR168W 311-323] | 631
49 | LTSGGSLPVSPRP [YOL061W 323-335] | 60
50 | LTTNKETPANAKP [YAR044W 406-418] | 111
51 | LVSIENAPVSLRP [YGR031W 172-184] | 59.6
52 | LVDPKVDPILLRP [YBL069W 153-165] | 137
53 | LVFELDENLKPSKP [YKL152C 212-225] | 105
54 | LVSATAVPAESKP [YPL074W 405-417] | 25
55 | LVTPLAGGVTPMKP [YAL054C 478-491] | 93.7
56 | LWALLQSGRLPQRP [YDR147W 440-453] | 322
57 | LWQRKKLGEAPIKP [YLR129W 775-788] | 29.7
58 | LWQYVTDPSYKKP [YBR241C 284-296] | 48.4

— publication PMC314469, “Protein Interaction Networks by Proteome Peptide Scanning” (PLoS Biology, 2004)
